Assay results taken from PMC11500415, “Chemical inhibition of stomatal differentiation by perturbation of the master-regulatory bHLH heterodimer via an ACT-Like domain” (Nature Communications, 2024).

T1: recombinant SCRM (1-494) (A. thaliana, UniProt Q9LSE2 1-494)
T1 construct: Used in ITC and BLI; In BLI one partner was loaded GST-tagged on anti-GST probes; also called SCREAM; ICE1; source: E. coli BL21, purified (glutathione resin, thrombin, Superdex-200); not shown: GST, N-terminal, cleaved
T1 sequence (looked up): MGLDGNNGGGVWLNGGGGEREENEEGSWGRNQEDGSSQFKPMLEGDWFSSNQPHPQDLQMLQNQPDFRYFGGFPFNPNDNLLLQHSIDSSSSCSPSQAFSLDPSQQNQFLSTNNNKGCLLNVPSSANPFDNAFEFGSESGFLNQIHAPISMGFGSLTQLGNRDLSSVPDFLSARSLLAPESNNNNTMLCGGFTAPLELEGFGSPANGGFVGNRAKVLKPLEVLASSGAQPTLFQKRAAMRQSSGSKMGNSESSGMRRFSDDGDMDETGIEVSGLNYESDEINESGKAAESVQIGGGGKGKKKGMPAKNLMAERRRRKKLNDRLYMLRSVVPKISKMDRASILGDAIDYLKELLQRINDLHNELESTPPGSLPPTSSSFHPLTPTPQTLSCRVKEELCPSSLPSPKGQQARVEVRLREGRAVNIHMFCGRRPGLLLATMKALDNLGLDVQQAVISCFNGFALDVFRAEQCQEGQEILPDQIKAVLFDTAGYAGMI


Experiments:
Conditions in all cases: both partners purified
recombinant SCRM (1-494) [1] = biological target: T1, recombinant SCRM (1-494); assay: BLI; Octet Red96, anti-GST probes loaded with 500 nM GST tagged protein, 30 °C, 1× PBS, 2% DMSO, 0.02% Tween20; 1:1 model, steady-state analysis; without Stomidazolone
recombinant SCRM (1-494) [2] = biological target: T1, recombinant SCRM (1-494); assay: BLI; Octet Red96, anti-GST probes loaded with 500 nM GST tagged protein, 30 °C, 1× PBS, 2% DMSO, 0.02% Tween20; MUTE pre-incubated with Stomidazolone
recombinant SCRM (1-494) [3] = biological target: T1, recombinant SCRM (1-494); assay: ITC; Malvern PEAQ-ITC, 30 °C, PBS pH 7.4, 2% DMSO, 1 mM DTT; without Stomidazolone
recombinant SCRM (1-494) [4] = biological target: T1, recombinant SCRM (1-494); assay: ITC; Malvern PEAQ-ITC, 30 °C, PBS pH 7.4, 2% DMSO, 1 mM DTT; MUTE pre-incubated with Stomidazolone

| Kd (recombinant SCRM (1-494) [1]) | Kd (recombinant SCRM (1-494) [2]) | Kd (recombinant SCRM (1-494) [3]) | Kd (recombinant SCRM (1-494) [4]) | Binder |
| --- | --- | --- | --- | --- |
| 7.5 ± 1.2 nM | 856 ± 15.1 nM | – | – | recombinant MUTE (1-202), as used in BLI (natural protein, A. thaliana, UniProt Q9M8K6 1-202, looked up, also called full-length MUTE; source: E. coli BL21, purified (glutathione resin)) MSHIAVERNRRRQMNEHLKSLRSLTPCFYIKRGDQASIIGGVIEFIKELQQLVQVLESKKRRKTLNRPSFPYDHQTIEPSSLGAATTRVPFSRIENVMTTSTFKEVGACCNSPHANVEAKISGSNVVLRVVSRRIVGQLVKIISVLEKLSFQVLHLNISSMEETVLYFFVVKIGLECHLSLEELTLEVQKSFVSDEVIVSTN |
| – | – | 9.5 ± 1.6 nM | 900 ± 34.5 nM | recombinant MUTE (1-202), as used in ITC (natural protein, A. thaliana, UniProt Q9M8K6 1-202, looked up, also called full-length MUTE; source: E. coli BL21, purified (glutathione resin, thrombin, Superdex-200); not shown: GST, N-terminal, cleaved) MSHIAVERNRRRQMNEHLKSLRSLTPCFYIKRGDQASIIGGVIEFIKELQQLVQVLESKKRRKTLNRPSFPYDHQTIEPSSLGAATTRVPFSRIENVMTTSTFKEVGACCNSPHANVEAKISGSNVVLRVVSRRIVGQLVKIISVLEKLSFQVLHLNISSMEETVLYFFVVKIGLECHLSLEELTLEVQKSFVSDEVIVSTN |
